IntAct's records for PubMed 17157788

B1: Protein AATF (Homo sapiens), Q9NY61 (parent)
chain: MAGPQPLALQLEQLLNPRPSEADPEADPEEATAARVIDRFDEGEDGEGDFLVVGSIRKLASASLLDTDKRYCGKTTSRKAWNEDHWEQTLPGSSDEEISDEEGSGDEDSEGLGLEEYDEDDLGAAEEQECGDHRESKKSRSHSAKTPGFSVQSISDFEKFTKGMDDLGSSEEEEDEESGMEEGDDAEDSQGESEEDRAGDRNSEDDGVVMTFSSVKVSEEVEKGRAVKNQIALWDQLLEGRIKLQKALLTTNQLPQPDVFPLFKDKGGPEFSSALKNSHKALKALLRSLVGLQEELLFQYPDTRYLVDGTKPNAGSEEISSEDDELVEEKKQQRRRVPAKRKLEMEDYPSFMAKRFADFTVYRNRTLQKWHDKTKLASGKLGKGFGAFERSILTQIDHILMDKERLLRRTQTKRSVYRVLGKPEPAAQPVPESLPGEPEILPQAPANAHLKDLDEEIFDDDDFYHQLLRELIERKTSSLDPNDQVAMGRQWLAIQKLRSKIHKKVDRKASKGRKLRFHVLSKLLSFMAPIDHTTMNDDARTELYRSLFGQLHPPDEGHGD

Variants of: B1
Settings: with chk2_human CHEK2, O96017
Chain of chk2_human CHEK2, O96017 (O96017 whole entry): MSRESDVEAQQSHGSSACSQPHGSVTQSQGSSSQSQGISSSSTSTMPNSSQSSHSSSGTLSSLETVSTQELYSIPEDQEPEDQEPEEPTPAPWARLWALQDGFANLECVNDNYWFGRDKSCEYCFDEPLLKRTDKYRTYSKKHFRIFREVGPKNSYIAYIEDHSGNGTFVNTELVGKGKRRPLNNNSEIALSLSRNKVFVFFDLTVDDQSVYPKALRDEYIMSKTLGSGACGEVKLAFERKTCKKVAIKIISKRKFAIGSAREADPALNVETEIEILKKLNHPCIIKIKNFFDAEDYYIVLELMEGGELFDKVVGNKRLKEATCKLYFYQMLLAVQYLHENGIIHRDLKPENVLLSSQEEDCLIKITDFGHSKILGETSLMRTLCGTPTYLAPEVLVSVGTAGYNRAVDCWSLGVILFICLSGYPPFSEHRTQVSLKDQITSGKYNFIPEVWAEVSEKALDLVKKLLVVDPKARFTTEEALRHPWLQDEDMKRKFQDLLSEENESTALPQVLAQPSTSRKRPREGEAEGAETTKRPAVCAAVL

| Variant | effect of a mutation on the interaction |
| --- | --- |
| S141A;K508A | decreasing interaction |
| S143A;S477A;S510A | disrupting interaction |
| S141A;R474A | decreasing interaction |

Variants of: B1
Settings: with tf65_human RELA

| Variant | effect of a mutation on the interaction |
| --- | --- |
| S143A;S189A;S477A;S510A | disrupting interaction |

Variants of: B1
Settings: with atm_human ATM

| Variant | effect of a mutation on the interaction |
| --- | --- |
| S189A | disrupting interaction |
